Results taken from the supplement of paper PMC10126150.
± gives the standard deviation of the averaged measurements.

The sequences below were run on ATP (assay: switch fluorescence ratio, 500 uM ATP over buffer (Cy3 cluster intensity, sum of 5 cycles each) (fold (ratio)); higher = stronger signal-on switching upon ATP binding; sequences stand for … in TCGTCGGCAGCGTCAGATGTGTATAAGAGACAGTTTTTTTTTTTTTTTTTTTTTTTTT…TC). Details: aptamer strand: ATP DNA aptamer (quencher-CACCTGGGGGAGTATTGCGGAGGAAGG + anchor), 100 nM annealed; ATP concentration: 500 uM.
Summary of the method: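 Switching-strand clusters labelled with Cy3 on a modified Illumina MiSeq flow-cell were annealed to 100 nM quencher-labelled ATP aptamer, imaged in selection buffer, and re-imaged after 15 min with 500 uM ATP at 22 °C. This was done over five cycles with NaOH stripping and re-annealing in between. The fluorescence ratio is summed target-cycle over summed buffer-cycle Cy3 intensity per cluster, averaged per switch-domain sequence, excluding clusters outside 100-1000 RFU.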
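Note: ATP exposure 15 min at 22 °C before imaging.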

Row | Sequence | switch fluorescence ratio
1 | CACTAGACGG | 1.45 ± 0.064
2 | TAAGTGGGGG | 0.979 ± 0.03
3 | GTGGAGGGTG | 1.05 ± 0.035
4 | CCAATTCAAG | 0.9977 ± 0.0073
5 | TCTAATTCAA | 0.996 ± 0.018
6 | GGAAAAACGT | 0.998 ± 0.015
7 | GGATTAAATC | 1.001 ± 0.0086
8 | TTGACTGGAG | 1 ± 0.011
9 | AAACGCCATT | 1.13 ± 0.018
10 | AGGCAATGTT | 1.05 ± 0.013
11 | TCTGGGAATA | 1.04 ± 0.023
12 | CCTTGGGGAA | 0.98 ± 0.013
13 | TCGAGTGGAG | 1.0319 ± 0.00064
14 | GCGGGCGGGA | 1.031 ± 0.0098
15 | AATGGCTAGG | 1.01 ± 0.014
16 | CTCTAAGGGT | 1.005 ± 0.0098
17 | ATGGGGCAGG | 1.01 ± 0.033
18 | AGATGTTCGG | 0.975 ± 0.025
19 | AGATTCTGTT | 0.945 ± 0.022
20 | TTTGAGGCAT | 1.71 ± 1.2
21 | TCGTTGTGTG | 0.981 ± 0.019
22 | TTGCTTTTTG | 0.984 ± 0.064
23 | TCGCGACTTG | 0.9946 ± 0.0054
24 | CGGAGCAGGT | 2.09 ± 0.42
25 | TAGTAGCCTT | 1.03 ± 0.022

Row | Sequence | switch fluorescence ratio
26 | CATTCATGCT | 0.971 ± 0.033
27 | TTCTACGGTA | 1.69 ± 0.68
28 | AATCCGCGGA | 0.964 ± 0.013
29 | CCTCTTAACT | 1.13 ± 0.037
30 | TTTGCATTGT | 1.03 ± 0.035
31 | TTTTGGCTCC | 0.99685 ± 0.00035
32 | TGAGCAGTTG | 1.06 ± 0.12
33 | GAGATGAGGA | 0.97 ± 0.024
34 | TTTCCGGGTG | 2.5 ± 1.1
35 | TGAGAGAGAA | 1.01 ± 0.019
36 | AAAAGAGGGA | 0.999 ± 0.043
37 | TATGTGAGGG | 0.988 ± 0.033
38 | GGTTAGGGAG | 1.002 ± 0.0089
39 | GTGTAAATGG | 1.01 ± 0.013
40 | CTCATAGTAG | 0.988 ± 0.016
41 | TAGGTTTGGC | 1.03 ± 0.024
42 | AACGTACGTT | 1.14 ± 0.015
43 | TTAGAGGTTA | 0.98609 ± 0.00054
44 | GTTGCCGGGG | 1.01 ± 0.015
45 | TGTGGTTTAC | 0.978 ± 0.017
46 | TATAGGGGGT | 1.01 ± 0.036
47 | TTGAATTATT | 1.03 ± 0.013
48 | AAGCGGGTGG | 1.05 ± 0.028
49 | CGATCCCGGG | 1.07 ± 0.11
50 | AGGGCTCGTT | 0.9801 ± 0.0094

Row | Sequence | switch fluorescence ratio
51 | TTTTCTATTG | 1 ± 0.044
52 | GCAGCCGAAT | 1.04 ± 0.0093
53 | TAAAGTGAGC | 1.028 ± 0.0051
54 | AGTACGGAAG | 1.02 ± 0.024
55 | AGAGGGGATG | 1.02 ± 0.0081
56 | GGATGTTTCG | 1.02 ± 0.02
57 | AGCGGAAGGC | 1.04 ± 0.024
58 | TAATTCGGTT | 1 ± 0.021
59 | TGCGACGAGG | 1.04 ± 0.0011
60 | GGGGGGGTAA | 0.993 ± 0.027
61 | TGACGAAACT | 1.35 ± 0.33
62 | ATTTGAGGGA | 1.13 ± 0.2
63 | TTAGAAGACT | 1.08 ± 0.08
64 | GGATAGGGTA | 0.974 ± 0.043
65 | CGGGAAGTTT | 0.999 ± 0.032
66 | GCCTTTTGCG | 1.01 ± 0.018
67 | AAGAGGTGGG | 0.99 ± 0.024
68 | CTGCAAGACA | 2.64 ± 0.72
69 | ACGTTATTTT | 1.126 ± 0.0061
70 | TACACAGCGG | 1.05 ± 0.045
71 | ACTGTGGACA | 1.02 ± 0.016
72 | GAGGGTCTTT | 0.969 ± 0.025
73 | CGCGGCTTGG | 1.01 ± 0.018
74 | TCGCAGCAGG | 2.82 ± 0.097
75 | GGCTTTGGTC | 1.018 ± 0.0099

Row | Sequence | switch fluorescence ratio
76 | TAGTCGATGC | 1.03 ± 0.034
77 | AGGTATGGGG | 0.998 ± 0.034
78 | GGAACGCAGG | 0.9981 ± 0.0022
79 | AGGGTAGATT | 0.977 ± 0.054
80 | TTGCTAGTAT | 1.0001 ± 0.00075
81 | ACTCTGCCGG | 1.2 ± 0.048
82 | AGAGAGACAG | 0.97 ± 0.057
83 | ATGGGGAAAG | 0.9876 ± 0.0034
84 | GGGCTGCGGA | 0.976 ± 0.051
85 | GGGTTGGAAT | 0.9878 ± 0.003
86 | TTACGGTGGT | 1.03 ± 0.036
87 | GGGAAGGGGA | 1.04 ± 0.12
88 | CTGAATTGGT | 0.975 ± 0.012
89 | AGAAGCAGG | 1.21 ± 0.26
90 | AGGGTAGATA | 1 ± 0.044
91 | TTTCCATATT | 0.984 ± 0.019
92 | TGTCCTCAGC | 1.51 ± 0.14
93 | GACTGATCGT | 1.008 ± 0.0059
94 | ATTATAGTCG | 1.01 ± 0.036
95 | TCGTAGGTAA | 1.1 ± 0.12
96 | GCAGGGAAGG | 1.03 ± 0.035
97 | AGAGTGACGA | 1.008 ± 0.0061
98 | GTTTTAGGCG | 0.986 ± 0.028
99 | CAATGGGGGA | 1.007 ± 0.0018
100 | GGTTTGTGTT | 0.974 ± 0.017
